In EP4786493A1:
Substitutions are numbered along the chain they refer to.

B1: AHP30826 (antibody, V domains shown)
VH: QVQLQQSGGGSVQAGGSLRLSCAASGTILSINAMGWYRQAPGKQRELVATITTGGNANYAHSVKGRFTISRDNAKNTVYLQMNNLKPEDTAVYYCNAEQVVVGFLQAYDVWGQGTTVTVSS
VL: DVVMTQSPLSLPVTLGQAASISCRSSQSLVHGDGNTYLNWIQQRPGQSPRRLIYKVSNRDSGVPDRFSGSGSGTDFTLKISRVEAEDVGVYYCMQGTHWPSTFGPGTKVDIK
B2: AHP32919 (antibody, V domains shown)
VH: QVQLQESGGGVVQPGGSLRLSCAASQSIGLLSTMGWYRQAAGKQRELVATITRGGSTNYGEFVKGRFTISRDNAKNTVYLQMNSLKPEDTAVYYCTADESWLGTQSYWGRGTRVTVSS
VL: QAGLTQPPSASGTPGQGVTISCSGSSSNIGSNSVNWYQQLPGTAPKLLMHSNNERSSGVPDRFSGSKSGSSASLAISGLQSEDAADYFCGAWDDSLNGYVFGTGTKLTVL
B3: AHP29153 (antibody, V domains shown)
VH: QLQQVESGGGLVQPGGSLRLSCAASRNIGILSTMGWYRQAPGKQRELVATITRGGSTNYGEFVKGRFTISRDNAKNTVYLQMNSLKPEDTAVYYCNVDESWLGTQSYWGRGTTVTVSS
VL: QSVLTQPASVSGSPGQSITISCTGTSSDVGGYKYVSWYQQPPGKAPKLIIYEVTKRPSGVPDRFSGSKSGNTASLTVSGLQAEDEADYYCLSYAGSNNVFGTGTKLTVL
B4: AHP32913 (antibody, V domains shown)
VH: B3 VH with L2V, Q4L, V5M, E6Q, T113Q
VL: QAVVTQEPSLTVSPGGTVTLTCGSSTGPVTSGHYPHWYQQKPGQAPKTLIFDTSHKHPWTPAQFSGSLLGGKAALTLSGAHPEDEAEYYCLLSYSGVRVFGGGTQLIIL
B5: AHP32982 (antibody, V domains shown)
VH: B3 VH with L2V, Q4L, E6Q, T112P, T113L
VL: DIVMTQSPSSVSASVGDRVTITCRASQGISSWLAWYQQKPGKAPKLLIYAASSLQSGVPSRFSGSGSGTDFTLTISSLQPEDFATYYCQQANSFPLTFGGGTKVEIK
B6: AHP31548 (antibody, V domains shown)
VH: B3 VH with L2V, Q4L, V5M, E6Q
VL: QSALTQPPSASGSPGQSVTISCTGTSSDIGTYNFVSWYQQHPGKAPKLIIYEVSKRPSGVPDRFSGSKSGNTASLTVSGLQAEDEADYYCKSYPRVFGTGTKLTAL

Molecular target: murine Claudin 18.2 expressed on HEK293 cells (murine) (UniProt P56857)
Sequence (P56857 whole entry): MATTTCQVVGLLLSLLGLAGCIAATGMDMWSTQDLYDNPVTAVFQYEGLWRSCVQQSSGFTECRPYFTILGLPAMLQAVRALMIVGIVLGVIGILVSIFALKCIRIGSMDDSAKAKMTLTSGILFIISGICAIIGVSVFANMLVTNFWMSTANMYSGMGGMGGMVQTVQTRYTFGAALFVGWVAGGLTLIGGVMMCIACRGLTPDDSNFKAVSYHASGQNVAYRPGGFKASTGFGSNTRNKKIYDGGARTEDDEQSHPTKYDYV
Assay: flow cytometry on HEK293 cells expressing murine Claudin 18.2

EC50	Binder
3.44 nM	B1
0.772 nM	B2
4.45 nM	B3
0.728 nM	B4
4.03 nM	B5
1.67 nM	B6
